Measurements taken from patent US20200003757A1, “METHOD OF IDENTIFYING AGENTS THAT AFFECT MATURATION, SURVIVAL AND MYELINATION” (KADIMASTEM, LTD., priority 2011, published 2020).

How the values were obtained:
human oligodendrocytes = test: Human oligodendrocytes and hESC-OPC survival assay (dead cell labeling and O4 labeling); format: cell-based; conditions: 14 days in culture
Experimental: In order to evaluate the survival of human oligodendrocytes or its progenitor cells in culture, a specific dead cell labeling (Live/dead viability/cytotoxicity kit for mammalian cells, Invitrogen, molecular probes, L3223) was used. A culture of differentiated oligodendrocytes and oligodendrocytes progenitor culture sorted by O4+ or CD140+ MACS sorting respectively were obtained. The effect of recombinant human IFN-Y (R&D systems, Biotest, 285-IF-100) was tested on oligodendrocytes survival. Following 14 days in culture the cells were labeled with dead cell labeling (Ethidium heterodimer 1-red labeling) and O4 labeling (green). […] Such an assay gives complementary results on the effect of tested compound on oligodendrocytes survival.

hES-OPC = test: Differentiation assay; dose response of Noggin on hES-OPC (O4/DAPI staining, Cellomics neuronal profiling); format: cell-based, human
Experimental: 5000 hES-OPC were seeded in each well of Matrigel and PDL-coated 96 well black clear plates (CI-3603, Corning). The medium used for the experiment comprised DMEM/F12 with 0.5% (v/v) N2 supplement (Invitrogen), 1% (v/v) B27 supplement, Glutamax and 100 U/ml penicillin and 100 μg/ml streptomycin (Biological Industries, IL). The cells were deprived from growth factors 24 hours prior to seeding. 12 hours following seeding, increasing doses of Noggin (Preprotech, Israel) were supplemented to the media for the ten days of differentiation. The Noggin doses ranged between 15 nM to 0.015 nM (450 ng/ml to 0.45 ng/ml) with 3.16 fold dilutions (square root of 10) in the presence of 0.1% DMSO and 50 μg/ml Vitamin C. Samples without Noggin in the presence of 0.1% DMSO and 50 μg/ml Vitamin C served as negative control. The media was changed every other day by replenishing ⅔ of the media. On day ten, the wells were fixed using 4% paraformaldehyde (PFA) for further O4 and Dapi staining.
Cells were fixed using 4% paraformaldehyde (PFA), washed with PBS and kept at 4° C. before staining. Non-specific staining was blocked with normal goat serum (5% w/v in PBS) for 30 minutes at RT. Primary mouse monoclonal (mMc) and rabbit polyclonal antibodies, diluted in 1% goat serum, were as described in Table 2, herein below. All staining was followed by the nuclear fluorescent dye DAPI (Sigma, 0.05 μg/ml). All coverslips were mounted in Mowiol (Calbiochem, La Jolla, Calif.). An Olympus IX-70 FLA microscope with a DVC-1310C digital camera (DVC, Austin, Tex.) was used and images processed with Photoshop and analyzed with Image-Pro-Plus software (Media Cybernetics, Silver Spring, Md.) to measure Integrated Optic Density (IOD) of color-specific pixels and MBP positive fiber length. […]
BMP signaling negatively regulates oligodendrocyte lineage development, and it has been shown that Noggin, an inhibitor of BMP signaling, promotes the differentiation of ES-derived oligodendrocytes. As a proof of concept that effects of drugs on oligodendrocyte differentiation can be quantified, the inventors searched for the optimal concentration of Noggin to be used to promote differentiation. […] Nuclear DNA staining with DAPI was used to quantify the cell number per field, and oligodendrocytes were characterized by staining with O4. […] Similarly, O4 positive processes (green) were counted and measured only if attached to O4 cell body. Places where one process becomes two were counted as branch point (FIGS. 3D-E, yellow circles). The numbers of processes, their lengths, and the number of branch points per O4 positive cell body were counted. […] Thus, it may be concluded that the present assay is capable of quantifying the effect of Noggin. […]

| Molecule | percentage of dead cells (human oligodendrocytes; Ethidium heterodimer 1 labeling, FIG. 12E) | number of differentiated oligodendrocytes (O4+ cells) (human oligodendrocytes; O4 labeling, FIG. 12F) | morphology of O4 positive OLs versus absence of Noggin (hES-OPC; Noggin added after growth factor removal, FIGS. 3A-C) | number of O4 positive cell per well (hES-OPC; ten days differentiation with noggin treatment) | process numbers per cell, total process length per well, number of branch points per cell (hES-OPC; ten days differentiation, O4 positive cells, serial dilutions of Noggin) | EC50 (hES-OPC; ten days without growth factors, O4 staining, triplicate, FIG. 3F, read-out: EC50 (50% of the maximal effect), curve generated by integrating process numbers per cell, total process length per well and number of branch points per cell) [nM] |
| --- | --- | --- | --- | --- | --- | --- |
| IFN-Y: recombinant human IFN-Y (R&D systems, Biotest, 285-IF-100) (protein, UniProt P01579 24-161, looked up) Interferon gamma: QDPYVKEAENLKKYFNAGHSDVADNGTLFLGILKNWKEESDRKIMQSQIVSFYFKLFKNFKDDQSIQKSVETIKEDMNVKFFNSNKKKRDDFEKLTNYSVTDLNVQRKAIHELIQVMAELSPAAKTGKRKRSQMLFRG | increased the percentage of dead cells | decreased the number of differentiated oligodendrocytes | – | – | – | – |
| Noggin: an inhibitor of BMP signaling (Preprotech, Israel) (protein, UniProt Q13253 28-232, looked up) Noggin: QHYLHIRPAPSDNLPLVDLIEHPDPIFDPKEKDLNETLLRSLLGGHYDPGFMATSPPEDRPGGGGGAAGGAEDLAELDQLLRQRPSGAMPSEIKGLEFSEGLAQGKKQRLSKKLRRKLQMWLWSQTFCPVLYAWNDLGSRFWPRYVKVGSCFSKRSCSVPEGMVCKPSKSVHLTVLRWRCQRRGGQRCGWIPIQYPIISECKCSC | – | – | stimulates the emergence of OLs with longer and multiple processes | not changed | correlated with Noggin concentration | 0.157 |
